{"source": "paper PMC9050902", "about": "(Journal of molecular biology, 2022)", "binders": {"B1": {"name": "synthetic four-site IDP (syn-4mer) (designed binder)", "chain": "GSYGSRKAIDAATQTEPKETRKAIDAATQTEPKETRKAIDAATQTEPKETRKAIDAATQTEGSYGS"}}, "target": "LC8 (as used with syn-4mer) ( (S. cerevisiae or D. …, UniProt Q24117 1-89))", "sequence (Q24117 whole entry)": "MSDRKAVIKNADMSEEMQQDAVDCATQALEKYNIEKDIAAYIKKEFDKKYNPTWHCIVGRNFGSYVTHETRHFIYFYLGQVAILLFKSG", "assay": "ITC", "data": [{"binder": "B1", "values": [{"measurement": "Kd", "value": "~40", "unit": "nM"}]}]}
